Results taken from paper PMC10673995, “Discovery of a novel cardiac-specific myosin modulator using artificial intelligence-based virtual screening” (Nature Communications, 2023).

Target: myosin S2 tail domain (UniProt P12883)
Test: MST; Monolith NT.115; 100 nmol/L Alexa647-labeled protein fixed, partner titrated (which was labeled is not told); 20 mmol/L Mops pH 7, 1 mmol/L MgCl2, 50 mmol/L KCl, 1 mmol/L DTT, 0.05% Tween-20; various nucleotides, with and without F10

myosin S2 tail domain, sequence (P12883 whole entry, the tested form may be a part): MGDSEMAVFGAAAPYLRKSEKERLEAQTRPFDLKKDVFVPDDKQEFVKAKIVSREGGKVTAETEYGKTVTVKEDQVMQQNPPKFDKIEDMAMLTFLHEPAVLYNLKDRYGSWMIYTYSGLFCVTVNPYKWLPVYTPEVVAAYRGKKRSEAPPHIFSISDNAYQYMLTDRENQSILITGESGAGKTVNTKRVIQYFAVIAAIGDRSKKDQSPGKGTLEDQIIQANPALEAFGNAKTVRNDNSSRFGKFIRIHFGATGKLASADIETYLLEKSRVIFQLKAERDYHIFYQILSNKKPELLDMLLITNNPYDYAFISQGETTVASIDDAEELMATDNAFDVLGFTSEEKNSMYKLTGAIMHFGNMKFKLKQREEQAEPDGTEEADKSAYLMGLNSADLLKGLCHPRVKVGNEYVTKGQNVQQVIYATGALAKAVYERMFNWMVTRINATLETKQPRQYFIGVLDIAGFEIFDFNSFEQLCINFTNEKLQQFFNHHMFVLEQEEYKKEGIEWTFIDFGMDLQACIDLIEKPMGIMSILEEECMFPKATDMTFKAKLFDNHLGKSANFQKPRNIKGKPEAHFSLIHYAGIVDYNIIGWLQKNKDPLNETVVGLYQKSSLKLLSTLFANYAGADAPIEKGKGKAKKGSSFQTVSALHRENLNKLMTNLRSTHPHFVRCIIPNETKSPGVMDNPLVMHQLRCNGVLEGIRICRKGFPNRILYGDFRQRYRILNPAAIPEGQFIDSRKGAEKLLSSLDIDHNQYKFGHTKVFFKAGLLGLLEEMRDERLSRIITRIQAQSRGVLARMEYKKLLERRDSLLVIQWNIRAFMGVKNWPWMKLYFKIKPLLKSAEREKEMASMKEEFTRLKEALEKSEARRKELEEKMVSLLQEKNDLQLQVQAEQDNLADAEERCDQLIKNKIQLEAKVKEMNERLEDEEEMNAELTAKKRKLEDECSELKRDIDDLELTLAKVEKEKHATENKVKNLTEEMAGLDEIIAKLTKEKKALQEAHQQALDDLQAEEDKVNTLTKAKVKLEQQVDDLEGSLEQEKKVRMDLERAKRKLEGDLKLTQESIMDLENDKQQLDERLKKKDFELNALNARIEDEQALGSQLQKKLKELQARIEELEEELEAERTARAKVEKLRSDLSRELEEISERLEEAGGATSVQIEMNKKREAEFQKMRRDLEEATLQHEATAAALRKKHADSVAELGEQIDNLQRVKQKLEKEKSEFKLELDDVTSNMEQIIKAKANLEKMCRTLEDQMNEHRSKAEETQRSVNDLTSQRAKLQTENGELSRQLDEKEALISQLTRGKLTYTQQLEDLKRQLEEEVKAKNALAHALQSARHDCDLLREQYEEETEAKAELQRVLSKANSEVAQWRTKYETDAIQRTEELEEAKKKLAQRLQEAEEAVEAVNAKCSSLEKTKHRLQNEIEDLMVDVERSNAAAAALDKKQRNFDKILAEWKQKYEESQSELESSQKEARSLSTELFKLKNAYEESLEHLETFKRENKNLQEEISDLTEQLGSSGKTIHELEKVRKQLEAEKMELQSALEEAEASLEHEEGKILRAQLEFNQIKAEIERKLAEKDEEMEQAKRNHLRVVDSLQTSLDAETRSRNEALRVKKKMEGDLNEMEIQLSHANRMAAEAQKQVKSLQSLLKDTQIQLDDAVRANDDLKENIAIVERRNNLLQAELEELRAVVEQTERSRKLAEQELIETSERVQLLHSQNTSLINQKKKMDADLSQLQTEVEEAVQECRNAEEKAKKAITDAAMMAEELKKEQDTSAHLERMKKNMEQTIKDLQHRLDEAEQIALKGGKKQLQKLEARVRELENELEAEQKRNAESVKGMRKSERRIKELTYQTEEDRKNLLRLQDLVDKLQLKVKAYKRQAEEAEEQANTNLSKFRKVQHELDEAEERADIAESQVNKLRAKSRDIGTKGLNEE

- Kd: 15 µM
Substance: bovine β-cardiac myosin S1 (from UniProt Q9BE39 1-1935; P85100 1-199) (domain or fragment)
